Reference: IntAct's records for PubMed 23594738

B1: Protein lin-28 homolog A (Mus musculus), Q8K3Y3 (parent)
chain: MGSVSNQQFAGGCAKAAEKAPEEAPPDAARAADEPQLLHGAGICKWFNVRMGFGFLSMTARAGVALDPPVDVFVHQSKLHMEGFRSLKEGEAVEFTFKKSAKGLESIRVTGPGGVFCIGSERRPKGKNMQKRRSKGDRCYNCGGLDHHAKECKLPPQPKKCHFCQSINHMVASCPLKAQQGPSSQGKPAYFREEEEEIHSPALLPEAQN
partner: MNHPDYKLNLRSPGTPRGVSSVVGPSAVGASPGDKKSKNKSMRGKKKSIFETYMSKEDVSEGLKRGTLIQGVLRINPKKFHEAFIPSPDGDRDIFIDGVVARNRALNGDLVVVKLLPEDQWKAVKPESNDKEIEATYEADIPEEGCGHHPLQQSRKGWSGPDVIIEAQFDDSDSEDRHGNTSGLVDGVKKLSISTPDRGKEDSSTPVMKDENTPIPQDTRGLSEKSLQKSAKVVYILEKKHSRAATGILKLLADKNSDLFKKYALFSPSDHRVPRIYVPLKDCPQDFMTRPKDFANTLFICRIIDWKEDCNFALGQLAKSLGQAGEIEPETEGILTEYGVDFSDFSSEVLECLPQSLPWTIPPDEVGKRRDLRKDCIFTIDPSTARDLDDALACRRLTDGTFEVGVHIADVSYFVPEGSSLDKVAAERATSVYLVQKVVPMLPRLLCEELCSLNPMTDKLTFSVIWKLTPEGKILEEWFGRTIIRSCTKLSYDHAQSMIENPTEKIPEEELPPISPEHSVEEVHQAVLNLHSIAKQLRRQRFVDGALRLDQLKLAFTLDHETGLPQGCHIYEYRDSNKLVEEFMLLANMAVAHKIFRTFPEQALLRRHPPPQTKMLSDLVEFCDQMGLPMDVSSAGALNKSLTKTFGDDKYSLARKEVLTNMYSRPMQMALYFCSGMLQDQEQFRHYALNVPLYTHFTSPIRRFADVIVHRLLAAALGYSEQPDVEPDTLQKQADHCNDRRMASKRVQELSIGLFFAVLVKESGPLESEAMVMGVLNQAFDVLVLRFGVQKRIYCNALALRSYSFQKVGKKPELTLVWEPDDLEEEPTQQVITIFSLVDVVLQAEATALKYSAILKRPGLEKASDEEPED

Variants of: B1
Conditions: with di3l2_mouse Dis3l2, Q8CI75

Row | Variant | effect of a mutation on the interaction
1 | W46A | decreasing interaction strength
